Measured values as given in article PMC2133180.

Target: perlecan purified from Englebreth-Holm-Swarm tumor (UniProt Q05793)
Assay: SPR

Sequence of UniProt Q05793 (Q05793 22-3707): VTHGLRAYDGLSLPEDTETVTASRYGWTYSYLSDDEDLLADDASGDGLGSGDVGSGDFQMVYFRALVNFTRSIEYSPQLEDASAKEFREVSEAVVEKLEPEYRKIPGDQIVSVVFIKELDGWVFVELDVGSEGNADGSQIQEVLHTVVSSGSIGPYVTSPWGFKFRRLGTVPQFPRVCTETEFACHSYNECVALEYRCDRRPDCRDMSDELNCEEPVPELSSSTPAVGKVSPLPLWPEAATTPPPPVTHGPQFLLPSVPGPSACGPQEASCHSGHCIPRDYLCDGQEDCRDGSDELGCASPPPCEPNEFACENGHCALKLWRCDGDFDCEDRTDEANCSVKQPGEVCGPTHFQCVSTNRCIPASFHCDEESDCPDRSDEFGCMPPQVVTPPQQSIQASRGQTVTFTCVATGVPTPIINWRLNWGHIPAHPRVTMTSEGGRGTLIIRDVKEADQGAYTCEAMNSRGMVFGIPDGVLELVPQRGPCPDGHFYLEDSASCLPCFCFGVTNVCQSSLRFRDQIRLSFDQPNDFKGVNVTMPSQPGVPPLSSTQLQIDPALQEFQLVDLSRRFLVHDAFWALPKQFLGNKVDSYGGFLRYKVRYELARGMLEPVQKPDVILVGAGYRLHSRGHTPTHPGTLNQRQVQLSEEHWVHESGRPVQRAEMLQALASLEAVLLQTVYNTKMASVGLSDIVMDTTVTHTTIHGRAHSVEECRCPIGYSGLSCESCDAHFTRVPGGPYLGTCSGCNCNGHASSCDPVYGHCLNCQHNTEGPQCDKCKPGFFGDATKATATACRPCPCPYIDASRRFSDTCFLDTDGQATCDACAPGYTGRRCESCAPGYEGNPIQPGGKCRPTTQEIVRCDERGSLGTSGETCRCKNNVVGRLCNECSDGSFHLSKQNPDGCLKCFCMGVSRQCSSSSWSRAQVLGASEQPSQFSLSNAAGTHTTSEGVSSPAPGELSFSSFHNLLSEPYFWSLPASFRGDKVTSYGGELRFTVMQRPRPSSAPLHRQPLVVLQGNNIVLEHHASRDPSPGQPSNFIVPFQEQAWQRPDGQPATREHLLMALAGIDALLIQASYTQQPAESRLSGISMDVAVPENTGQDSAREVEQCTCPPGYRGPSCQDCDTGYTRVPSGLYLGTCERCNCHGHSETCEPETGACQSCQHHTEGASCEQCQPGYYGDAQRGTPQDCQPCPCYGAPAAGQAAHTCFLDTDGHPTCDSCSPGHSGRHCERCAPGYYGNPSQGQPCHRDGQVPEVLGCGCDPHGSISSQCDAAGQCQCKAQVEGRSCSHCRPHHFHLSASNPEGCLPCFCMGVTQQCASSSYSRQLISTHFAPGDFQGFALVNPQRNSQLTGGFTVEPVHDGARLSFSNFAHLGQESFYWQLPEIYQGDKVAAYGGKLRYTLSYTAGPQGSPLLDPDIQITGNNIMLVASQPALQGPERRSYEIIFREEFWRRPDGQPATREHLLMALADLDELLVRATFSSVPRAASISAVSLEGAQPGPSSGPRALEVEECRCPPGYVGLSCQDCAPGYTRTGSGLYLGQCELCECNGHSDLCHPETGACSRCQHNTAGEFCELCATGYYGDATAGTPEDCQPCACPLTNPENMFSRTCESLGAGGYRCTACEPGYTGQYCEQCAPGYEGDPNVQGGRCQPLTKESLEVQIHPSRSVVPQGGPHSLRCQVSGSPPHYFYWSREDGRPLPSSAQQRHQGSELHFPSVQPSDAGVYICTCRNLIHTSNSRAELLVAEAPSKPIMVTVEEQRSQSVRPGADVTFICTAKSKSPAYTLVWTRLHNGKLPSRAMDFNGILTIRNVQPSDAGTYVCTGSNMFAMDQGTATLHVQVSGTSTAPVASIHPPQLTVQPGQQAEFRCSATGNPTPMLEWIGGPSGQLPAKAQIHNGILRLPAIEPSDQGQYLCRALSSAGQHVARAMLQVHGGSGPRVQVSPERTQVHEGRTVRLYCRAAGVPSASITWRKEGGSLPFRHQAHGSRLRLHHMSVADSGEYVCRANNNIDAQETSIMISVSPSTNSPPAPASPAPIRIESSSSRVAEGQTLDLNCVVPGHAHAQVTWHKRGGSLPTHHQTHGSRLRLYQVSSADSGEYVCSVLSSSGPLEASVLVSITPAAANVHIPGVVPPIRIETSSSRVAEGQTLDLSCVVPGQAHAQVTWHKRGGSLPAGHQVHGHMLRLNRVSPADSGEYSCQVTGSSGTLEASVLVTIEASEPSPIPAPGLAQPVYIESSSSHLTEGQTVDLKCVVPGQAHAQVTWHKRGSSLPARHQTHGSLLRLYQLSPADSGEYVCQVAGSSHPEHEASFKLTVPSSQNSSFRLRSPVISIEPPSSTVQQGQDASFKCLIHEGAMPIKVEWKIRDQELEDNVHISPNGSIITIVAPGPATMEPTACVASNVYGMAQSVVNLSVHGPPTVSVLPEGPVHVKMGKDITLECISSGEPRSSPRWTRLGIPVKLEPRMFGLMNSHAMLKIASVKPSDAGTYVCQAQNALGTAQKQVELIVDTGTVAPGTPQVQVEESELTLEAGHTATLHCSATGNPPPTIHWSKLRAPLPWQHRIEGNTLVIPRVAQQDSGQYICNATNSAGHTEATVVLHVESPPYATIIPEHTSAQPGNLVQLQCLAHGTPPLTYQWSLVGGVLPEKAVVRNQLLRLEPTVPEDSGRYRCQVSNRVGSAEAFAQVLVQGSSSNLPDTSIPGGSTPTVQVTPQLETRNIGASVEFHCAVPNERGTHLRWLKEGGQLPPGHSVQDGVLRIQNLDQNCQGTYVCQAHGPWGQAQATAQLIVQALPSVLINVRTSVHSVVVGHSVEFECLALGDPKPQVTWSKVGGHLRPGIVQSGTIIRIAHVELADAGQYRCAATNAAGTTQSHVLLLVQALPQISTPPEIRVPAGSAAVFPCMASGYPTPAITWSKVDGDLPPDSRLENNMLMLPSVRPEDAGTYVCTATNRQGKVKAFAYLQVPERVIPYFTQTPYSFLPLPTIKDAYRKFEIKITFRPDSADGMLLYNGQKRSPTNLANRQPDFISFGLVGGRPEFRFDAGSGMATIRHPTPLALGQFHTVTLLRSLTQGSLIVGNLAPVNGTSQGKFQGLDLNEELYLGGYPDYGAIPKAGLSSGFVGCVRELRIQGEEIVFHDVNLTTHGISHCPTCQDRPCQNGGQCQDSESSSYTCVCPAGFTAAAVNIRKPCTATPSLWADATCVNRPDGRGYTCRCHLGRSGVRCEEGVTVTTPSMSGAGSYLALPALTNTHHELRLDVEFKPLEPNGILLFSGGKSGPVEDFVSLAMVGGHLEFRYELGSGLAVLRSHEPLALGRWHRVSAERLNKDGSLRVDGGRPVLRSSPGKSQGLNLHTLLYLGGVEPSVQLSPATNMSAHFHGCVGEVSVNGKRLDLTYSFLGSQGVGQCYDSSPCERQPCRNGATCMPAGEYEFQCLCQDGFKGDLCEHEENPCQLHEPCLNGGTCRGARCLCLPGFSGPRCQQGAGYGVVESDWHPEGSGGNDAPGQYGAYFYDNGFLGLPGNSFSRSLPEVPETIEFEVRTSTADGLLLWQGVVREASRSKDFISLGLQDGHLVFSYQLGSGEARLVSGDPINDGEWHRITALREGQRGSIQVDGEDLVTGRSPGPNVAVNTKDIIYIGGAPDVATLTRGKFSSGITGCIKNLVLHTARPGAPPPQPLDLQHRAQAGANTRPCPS

quail A12 collagenic-tailed acetylcholinesterase (asymmetric form) (complex)
fold change in RU over the G2/G4 value: 270 fold
